Data: patent publication CN113045663A (SHENZHEN INNOVA NANOBODI CO LTD, dated 2021)

Biological target: T1, 血清标本中的HE4抗原 (human, UniProt Q14508 31-124, limits assumed)
T1 construct: Serum HE4 detected in the sandwich assay; kept apart from the recombinant antigen; also called 血清中HE4; 质控血清HE4
T1 sequence (looked up): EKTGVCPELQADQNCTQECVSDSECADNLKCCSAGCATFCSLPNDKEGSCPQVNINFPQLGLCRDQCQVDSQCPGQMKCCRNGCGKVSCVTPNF
Test: double-antibody sandwich chemiluminescent ELISA, capture antibody

B1: FC融合纳米抗体3C8 (Fc fusion)
chain: QLQESGGGLVQAGGSVRLSCAASGRTFRRYHMGWFRQTPGKEREFVAAISWSGGTTYYAESVKGRFTISRDNAKNTIYLQMNSLKPEDTAVYYCAPTYGNYWHPSGYWGQGTQVTVSS
notes: Capture antibody of the double-antibody sandwich assay; also called 3C8 (捕获一抗); 捕获抗体3C8; not shown: Fc part and any linker
- binding result: binds
